Tests used:
[1] = target: bovine α-chymotrypsin (bovine); experiment: stoichiometry of inhibition by titration of enzyme activity; as the stoichiometry of inhibition assay, protein treated with 100 mM 2-mercaptoethanol (reduced)
[2] = target: bovine α-chymotrypsin (bovine); experiment: stoichiometry of inhibition by titration of enzyme activity; inhibitor incubated with 0.5 μM bovine α-chymotrypsin for 30 min at room temperature (21°C) in 20 mM Tris/HCl, 0.1 M NaCl, 0.1% PEG 8000, 10 mM CaCl2 pH 8.0; residual activity on N-succinyl-Ala-Ala-Pro-Phe-p-nitroanilide
[3] = target: the molecule itself; experiment: FRET or BRET; mutant series; 0.2 mg/ml protein, 4 μM Atto550–Ni-NTA and 4 μM Atto647N–Ni-NTA on the His6 tag, 10 mM NaH2PO4/Na2HPO4, 100 mM NaCl pH 7.4; heat-induced polymerization at 55°C; time to half-maximal signal
[4] = target: the molecule itself; experiment: FRET or BRET; mutant series; 0.2 mg/ml protein, 4 μM Atto550–Ni-NTA and 4 μM Atto647N–Ni-NTA on the His6 tag, 10 mM NaH2PO4/Na2HPO4, 100 mM NaCl pH 7.4; heat-induced polymerization at 60°C; time to half-maximal signal
[5] = target: the molecule itself; experiment: FRET or BRET; mutant series; 0.2 mg/ml protein, 4 μM Atto550–Ni-NTA and 4 μM Atto647N–Ni-NTA on the His6 tag, 10 mM NaH2PO4/Na2HPO4, 100 mM NaCl pH 7.4; heat-induced polymerization at 65°C; time to half-maximal signal

Molecule	SI (stoichiometry of inhibition) [1]	SI (stoichiometry of inhibition) [2]	polymerization half-time (t0.5) [3]	polymerization half-time (t0.5) [4]	polymerization half-time (t0.5) [5]
α1-antitrypsin C232S E162C/V170C (162–170) (from UniProt P01009 26-418) (natural protein)	1	1			
α1-antitrypsin C232S K191C/T339C (191–339) (from UniProt P01009 26-418) (natural protein)	1				
α1-antitrypsin C232S E162C/V170C (162–170) (natural protein, disulfide bond between C162 and C170 (predominantly in the disulfide-bonded form, >90%); reduced where treated with 100 mM 2-mercaptoethanol, α1-antitrypsin, wild-type (M) ORF on the C232S background; Same construct as m3 with the stated changes; source: E. coli SG13009/pREP4 (pQE-30) or BL21(DE3) (pQE-81L), purified; not shown: His6, N-terminal, kept) DPQGDAAQKTDTSHHDQDHPTFNKITPNLAEFAFSLYRQLAHQSNSTNIFFSPVSIATAFAMLSLGTKADTHDEILEGLNFNLTEIPEAQIHEGFQELLRTLNQPDSQLQLTTGNGLFLSEGLKLVDKFLEDVKKLYHSEAFTVNFGDTEEAKKQINDYVCKGTQGKICDLVKELDRDTVFALVNYIFFKGKWERPFEVKDTEEEDFHVDQVTTVKVPMMKRLGMFNIQHSKKLSSWVLLMKYLGNATAIFFLPDEGKLQHLENELTHDIITKFLENEDRRSASLHLPKLSITGTYDLKSVLGQLGITKVFSNGADLSGVTEEAPLKLSKAVHKAVLTIDEKGTEAAGAMFLEAIPMSIPPEVKFNKPFVFLMIEQNTKSPLFMGKVVNPTQK			3930 s	941 s	226 s
α1-antitrypsin C232S S283C/P361C (283–361) (natural protein, disulfide bond between C283 and C361 (predominantly in the disulfide-bonded form, >90%); reduced where treated with 100 mM 2-mercaptoethanol, α1-antitrypsin, wild-type (M) ORF on the C232S background; Same construct as m3 with the stated changes; source: E. coli SG13009/pREP4 (pQE-30) or BL21(DE3) (pQE-81L), purified; not shown: His6, N-terminal, kept) DPQGDAAQKTDTSHHDQDHPTFNKITPNLAEFAFSLYRQLAHQSNSTNIFFSPVSIATAFAMLSLGTKADTHDEILEGLNFNLTEIPEAQIHEGFQELLRTLNQPDSQLQLTTGNGLFLSEGLKLVDKFLEDVKKLYHSEAFTVNFGDTEEAKKQINDYVEKGTQGKIVDLVKELDRDTVFALVNYIFFKGKWERPFEVKDTEEEDFHVDQVTTVKVPMMKRLGMFNIQHSKKLSSWVLLMKYLGNATAIFFLPDEGKLQHLENELTHDIITKFLENEDRRCASLHLPKLSITGTYDLKSVLGQLGITKVFSNGADLSGVTEEAPLKLSKAVHKAVLTIDEKGTEAAGAMFLEAIPMSICPEVKFNKPFVFLMIEQNTKSPLFMGKVVNPTQK			8970 s	1430 s	37 s
α1-antitrypsin C232S S292C/T339C (292–339) (natural protein, disulfide bond between C292 and C339 (predominantly in the disulfide-bonded form, >90%); reduced where treated with 100 mM 2-mercaptoethanol, α1-antitrypsin, wild-type (M) ORF on the C232S background; Same construct as m3 with the stated changes; source: E. coli SG13009/pREP4 (pQE-30) or BL21(DE3) (pQE-81L), purified; not shown: His6, N-terminal, kept) DPQGDAAQKTDTSHHDQDHPTFNKITPNLAEFAFSLYRQLAHQSNSTNIFFSPVSIATAFAMLSLGTKADTHDEILEGLNFNLTEIPEAQIHEGFQELLRTLNQPDSQLQLTTGNGLFLSEGLKLVDKFLEDVKKLYHSEAFTVNFGDTEEAKKQINDYVEKGTQGKIVDLVKELDRDTVFALVNYIFFKGKWERPFEVKDTEEEDFHVDQVTTVKVPMMKRLGMFNIQHSKKLSSWVLLMKYLGNATAIFFLPDEGKLQHLENELTHDIITKFLENEDRRSASLHLPKLCITGTYDLKSVLGQLGITKVFSNGADLSGVTEEAPLKLSKAVHKAVLCIDEKGTEAAGAMFLEAIPMSIPPEVKFNKPFVFLMIEQNTKSPLFMGKVVNPTQK			2290 s	307 s	51 s
α1-antitrypsin C232S K168C/F189C (168–189) (natural protein, disulfide bond between C168 and C189 (predominantly in the disulfide-bonded form, >90%); reduced where treated with 100 mM 2-mercaptoethanol, α1-antitrypsin, wild-type (M) ORF on the C232S background; Same construct as m3 with the stated changes; source: E. coli SG13009/pREP4 (pQE-30) or BL21(DE3) (pQE-81L), purified; not shown: His6, N-terminal, kept) DPQGDAAQKTDTSHHDQDHPTFNKITPNLAEFAFSLYRQLAHQSNSTNIFFSPVSIATAFAMLSLGTKADTHDEILEGLNFNLTEIPEAQIHEGFQELLRTLNQPDSQLQLTTGNGLFLSEGLKLVDKFLEDVKKLYHSEAFTVNFGDTEEAKKQINDYVEKGTQGCIVDLVKELDRDTVFALVNYICFKGKWERPFEVKDTEEEDFHVDQVTTVKVPMMKRLGMFNIQHSKKLSSWVLLMKYLGNATAIFFLPDEGKLQHLENELTHDIITKFLENEDRRSASLHLPKLSITGTYDLKSVLGQLGITKVFSNGADLSGVTEEAPLKLSKAVHKAVLTIDEKGTEAAGAMFLEAIPMSIPPEVKFNKPFVFLMIEQNTKSPLFMGKVVNPTQK			21900 s	8870 s	1010 s

Continued, in another order:

SI (stoichiometry of inhibition) [1]	SI (stoichiometry of inhibition) [2]	Molecule	polymerization half-time (t0.5) [3]	polymerization half-time (t0.5) [4]	polymerization half-time (t0.5) [5]
1	1	α1-antitrypsin C232S S283C/P361C (283–361) (from UniProt P01009 26-418) (natural protein)			
1	1	α1-antitrypsin C232S S292C/T339C (292–339) (from UniProt P01009 26-418) (natural protein)			
	8.5	α1-antitrypsin C232S K168C/F189C (168–189) (from UniProt P01009 26-418) (natural protein)			
	1.1	α1-antitrypsin C232S (AT_(C232S)) (from UniProt P01009 26-418) (natural protein)			
	1	α1-antitrypsin C232S K335A (from UniProt P01009 26-418) (natural protein)			
	3.9	α1-antitrypsin C232S K331V (from UniProt P01009 26-418) (natural protein)			
